Experimental findings from patent US20160317656A1 (published 2016) are described below.

The target in test [1] is human FGFR2 IIIc variant protein (isoform 1: NP_000132), expressed on transfected cells (UniProt P21802 22-821). The experiment in a line: Biacore. On the technique in general: SPR reads the build-up and loss of mass on a sensor chip optically.
The target in test [2] is T1, IIIb.
T1 chain: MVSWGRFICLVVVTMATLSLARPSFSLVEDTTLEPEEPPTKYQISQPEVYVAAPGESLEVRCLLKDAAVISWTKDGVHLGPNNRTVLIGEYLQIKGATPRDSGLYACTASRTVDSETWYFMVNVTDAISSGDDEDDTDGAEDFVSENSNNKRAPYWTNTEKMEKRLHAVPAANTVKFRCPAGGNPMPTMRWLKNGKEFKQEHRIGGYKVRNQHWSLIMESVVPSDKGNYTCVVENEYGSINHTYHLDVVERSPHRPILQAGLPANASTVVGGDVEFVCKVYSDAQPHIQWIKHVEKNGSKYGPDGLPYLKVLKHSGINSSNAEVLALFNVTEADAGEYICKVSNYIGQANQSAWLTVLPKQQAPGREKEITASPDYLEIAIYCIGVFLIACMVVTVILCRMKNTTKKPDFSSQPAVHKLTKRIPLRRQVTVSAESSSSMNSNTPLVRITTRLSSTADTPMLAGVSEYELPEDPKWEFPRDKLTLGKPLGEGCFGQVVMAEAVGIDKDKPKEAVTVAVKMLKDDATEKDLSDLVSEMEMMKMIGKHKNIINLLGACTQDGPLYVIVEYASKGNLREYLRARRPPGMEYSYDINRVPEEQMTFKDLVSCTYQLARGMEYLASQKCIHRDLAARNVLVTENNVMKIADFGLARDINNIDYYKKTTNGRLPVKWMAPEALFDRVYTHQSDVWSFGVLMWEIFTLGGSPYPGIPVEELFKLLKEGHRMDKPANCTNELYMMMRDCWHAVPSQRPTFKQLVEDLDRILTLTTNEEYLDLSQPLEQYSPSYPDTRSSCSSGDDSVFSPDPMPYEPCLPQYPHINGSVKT
As to the kind of experiment: Biacore; rhFGFR2 alpha (IIIb) Fc chimera.

For test [3], the target named is IIIc. As to the kind of experiment: Biacore; rhFGFR2 alpha (IIIc) Fc chimera.

Positions count from the first letter of the chain named.

Chain of human FGFR2 IIIc variant protein (isoform 1: NP_000132), expressed on transfected cells (P21802 22-821, change not shown): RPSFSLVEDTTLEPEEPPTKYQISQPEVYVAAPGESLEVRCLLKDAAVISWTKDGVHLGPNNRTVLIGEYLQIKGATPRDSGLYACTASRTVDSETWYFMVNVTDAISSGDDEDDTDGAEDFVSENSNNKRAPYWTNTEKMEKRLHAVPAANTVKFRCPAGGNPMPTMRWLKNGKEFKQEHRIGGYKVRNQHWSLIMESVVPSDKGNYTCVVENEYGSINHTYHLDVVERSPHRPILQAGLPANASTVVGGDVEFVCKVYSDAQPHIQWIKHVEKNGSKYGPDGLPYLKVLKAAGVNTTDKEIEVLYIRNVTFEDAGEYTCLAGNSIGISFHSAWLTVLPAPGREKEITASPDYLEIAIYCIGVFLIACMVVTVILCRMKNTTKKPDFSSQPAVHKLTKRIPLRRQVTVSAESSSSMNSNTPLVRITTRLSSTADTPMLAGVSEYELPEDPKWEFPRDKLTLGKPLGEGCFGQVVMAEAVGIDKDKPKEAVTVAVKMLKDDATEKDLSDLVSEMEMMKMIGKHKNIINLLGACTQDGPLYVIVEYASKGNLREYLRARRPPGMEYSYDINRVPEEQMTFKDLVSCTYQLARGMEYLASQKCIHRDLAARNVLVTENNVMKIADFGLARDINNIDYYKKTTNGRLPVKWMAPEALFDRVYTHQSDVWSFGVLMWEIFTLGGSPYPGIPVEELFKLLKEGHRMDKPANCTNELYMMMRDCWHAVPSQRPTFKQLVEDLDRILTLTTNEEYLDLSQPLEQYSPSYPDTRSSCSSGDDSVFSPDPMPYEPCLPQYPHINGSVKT

B1: humanized anti-FGFR2 antibody hFR2-14_H7/L1 (antibody, V domains shown)
VH: QVQLVQSGAEVKKPGASVKVSCKASGFTFSTSYMSWVRQAPGPSTEWMGWIYAGDGGTKYNQKFKGRVTLTVDKSTSTAYMELSSLRSEDTAVYYCATDEYGDWFTYWGQGTLVTVSS
VL: DIQMTQSPSSLSASVGDRVTITCRASEDIYSNLAWYQQKPGKSPQLLIYDANILADGVPSRFSGSGSGTDYTLTISSLQPEDFATYYCQQYNNYPPFTFGQGTKVEIKR
For B1, the Kd (commonly the equilibrium constant for the complex coming apart) in test [1] was determined as 1.2 nM.

B2: humanized anti-FGFR2 antibody hFR2-14_H6/L1 (antibody, V domains shown)
VH: B1 VH with E100A
VL: B1 VL
In turn, B2 displayed a Kd in test [1] of 1.5 nM.

B3: humanized anti-FGFR2 antibody hFR2-14_H1/L1 (antibody, V domains shown)
VH: B1 VH with P43Q, S44G, T45L, E100G
VL: B1 VL
With B3, the Kd in test [2] came out at 12 nM; in test [3], 3 nM.

B4: humanized anti-FGFR2 antibody hFR2-14_H2/L1 (antibody, V domains shown)
VH: B1 VH with P43Q, S44G, T45L, V72A, E100G
VL: B1 VL
B4: the figures for the dissociation constant Kd in test [2] and in test [3] were 8.7 nM and 6.4 nM, respectively.

B5: humanized anti-FGFR2 antibody hFR2-14_H17/L1 (antibody, V domains shown)
VH: B1 VH with E100W
VL: B1 VL
As for B5, the affinity in test [1], expressed as Kd, was 1.5 nM.

B6: humanized anti-FGFR2 antibody hFR2-14_H15/L1 (antibody, V domains shown)
VH: B1 VH with E100R
VL: B1 VL
As to B6, the dissociation constant (Kd) in test [1] is 3.4 nM. This Kd is about 2.3-fold higher than that of the molecule before.

B7: humanized anti-FGFR2 antibody hFR2-14_H9/L1 (antibody, V domains shown)
VH: B1 VH with E100H
VL: B1 VL
B7 registered a Kd in test [1] of 0.51 nM.

B8: humanized anti-FGFR2 antibody hFR2-14_H5/L1 (antibody, V domains shown)
VH: B1 VH with D99E, E100G
VL: B1 VL
Take B8: the equilibrium dissociation constant (Kd) in test [1] is 0.95 nM.

B9: humanized anti-FGFR2 antibody hFR2-14_H10/L1 (antibody, V domains shown)
VH: B1 VH with E100I
VL: B1 VL
In test [1], B9 displayed a Kd of 0.69 nM.

B10: humanized anti-FGFR2 antibody hFR2-14_H14/L1 (antibody, V domains shown)
VH: B1 VH with E100Q
VL: B1 VL
Molecule B10 registered a Kd in test [1] of 2.3 nM.

B11: humanized anti-FGFR2 antibody hFR2-14_H13/L1 (antibody, V domains shown)
VH: B1 VH with E100M
VL: B1 VL
Molecule B11 registered a Kd in test [1] of 0.67 nM. This Kd is about 3.4-fold lower than that of the molecule before.

B12: humanized anti-FGFR2 antibody hFR2-14_H11/L1 (antibody, V domains shown)
VH: B1 VH with E100K
VL: B1 VL
With B12, the dissociation constant Kd in test [1] stood at 2.1 nM.

B13: humanized anti-FGFR2 antibody hFR2-14_H4/L1 (antibody, V domains shown)
VH: B1 VH with T45I, E100G, T106A
VL: B1 VL
For B13, the values for the Kd in test [2] and in test [3] were 5.4 nM and 2.8 nM, respectively.

B14: humanized anti-FGFR2 antibody hFR2-14_H18/L1 (antibody, V domains shown)
VH: B1 VH with E100Y
VL: B1 VL
The molecule B14 registered a Kd in test [1] of 1.2 nM.

B15: humanized anti-FGFR2 antibody hFR2-14_H16/L1 (antibody, V domains shown)
VH: B1 VH with E100V
VL: B1 VL
Take B15: the Kd in test [1] is 0.91 nM.

B16: human chimeric anti-FGFR2 antibody cFR2-14 (antibody, V domains shown)
VH: QVKLLQSGAELVKPGASVKLSCKTSGFTFSTSYMSWLKQVPGPSTEWIGWIYAGDGGTKYNQKFKGKATLTVDKFSSTAYMDLSSLTSEDAAVYFCATDGYGDWFTYWGQGTLVTVSS
VL: DIQMTQSPASLSASLGETVTIECRASEDIYSNLAWYQQKPGNSPQLLIYDANILADGVPSRFSGSGSGTQYSLKINSLQSEDVASYFCQQYNNYPPFTFGAGTKLELKR
In turn, B16 displayed a Kd in test [2] of 63 nM. This counts as double-digit nanomolar.
